The series is described as follows: soluble on expression in E. coli; label from the status in PepcDB or PDB records.
For the sequence “MRCIQLYVFYLISQLFTTGSAQKTFHYGVTGGEQFGRHEPSTRLSRFQSTPVSLNPLEDTLRVQQILKKLEDPGGLEIRRRSTSRRLHGVLTEPFGTPLVISGNSSEKKKKKPLKIKKRNGRRNPKSPEVNEYELQLAKQIEEDQLKFVEDEKNPMKYVVENGLLFRQSRYSPLARVEIPPVSGMSEISGISQRTSHSVGQTMQNPPRKRRRKQSYKLKNSKSSSESMFRTNVFRGNINRQIPAIPLPSPFSVAYGKPSFAIAREEDGKCYTNRFGYRCCDEALEALILKSYEKLRRKSNDLEDNLSKIASTLRRDSRQVFAKNLEAIVSTSNFGTSIPSDFSCKVELGPNRFVAQVFVPELGLDAKTTTRRHRIPYHELSREDLSDAADLVVSRNGIIVSKLL”, the “soluble on expression in E. coli” value is reported as “not soluble”.

Turning to “MKIGYLGPKATFTEAAAALLFPSQPREPYDTIPDCIDAAAAGEIEAAVVPLENALEGSVNLTLDYLIHEQPLPIIGEIVVPIEQHLMVHPYFTPHWREVKEVYSHSHAIAQCRKFLHTVLKGAKQVPMTSTSAAAKFVSEHPHLPAAAIANRLAAEKYGLVIVQENVHDYDYNHTRFIVVSRRKEPLSPASPLYAGDKTTVVVMLPQDRPGALHQVLSAFAWRRLNLTKIESRPAKTGLGNYFFIIDIDAPMDDVLIPGAIAEIEALGCTVQLLGSYPYYFA”, the “soluble on expression in E. coli” value is reported as “not soluble”.

For “SAHSAAAVPLGALEQGCPIRVEHDRRRRQFTVRLNGCHDRAVLLYEYVGKRIVDLQHTEVPDAYSGRGIAKHLAKAALDFVVEEDLKAHLTCWYIQKYVKENPLPQYLERLQP”, the “soluble on expression in E. coli” value is “soluble”.

Turning to “MTELHGECMCGAVTITATPARAALGACHCDMCRRWTSSAYVSFPVEPGYAALGPVKVYGSSDWAERAFCGTCGSVLWYRITLPGKMHGQTQMAAGLFENAGGNALKLELYIDKKPEGYAFAGERRQMTQAEVEAMYAPSDLGDSQ”, the “soluble on expression in E. coli” value is “not soluble”.

As to “MNIQPTIQSGITSQNNQHHQTEQIPSTQIPQSELPLGCQAGFVVNIPDDIQQHAPECGETTALLSLIKDKGLLSGLDEYIAPHLEEGSIGKKTLDMFGLFNVTQMALEIPSSVSGISGKYGVQLNIVKPDIHPTSGNYFLQIFPLHDEIGFNFKDLPGPLKNALSNSNISTTAVSTIASTGTSATTSTVTTEPKDPIPWFGLTAQVVRNHGVELPIVKTENGWKLVGETPLTPDGPKANYTEEWVIRPGEADFKYGASPLQATLGLEFGAHFKWDLDNPNTKYAVLTNAAANALGALGGFAVSRFASTDPMLSPHIGAMVGQAAGHAIQYNTPGLKPDTILWWAGATLGAADLNKAEFEVARFTDYPRIWWHAREGAIFPNKADIEHATGADIRAMEEGIPVGQRHPNPEDVVIDIESNGLPHHNPSNHVDIFDIIQETRV”, the “soluble on expression in E. coli” value is listed as “not soluble”.

As for “MMQMPKIGIIGGSGVYGVFEPKEVVKVHTPYGRPSAPIEIGEIEGVEVAFIPRHGKYHEFPPHQVPYRANIWALHELGVERVIAINAVGSLKEEYKPGDIVIIDQFIDFTKKREYTFYNGPKVAHVSMADPFCPELRKIFIETAKELNLPVHERGTYVCIEGPRFSTRAESRMFRQFADVIGMTLVPEVNLARELGMCYVNISTVTDYDVWAEKPVDAQEVLRVMKENEEKVQKLLKRAIPKIPEERKCGCADVLKTMFV”, the “soluble on expression in E. coli” value is “soluble”.

In the case of “MNEMWLHRADLAESAINERHASRLWMLPRTNLAVVAWPPTAKERLFYRWHYWWQAHYLDCLIDAASRRTTKARKQRIRDTIVGIRLRNLGRLTKNNYYDDKSWLALALDRERRLNKRAKREYLRVLEGNIAAGQDDIQGVLPWRVGEHFFNVPTNGPAAIMLARNGEVEQARKLVDWIFDNLINDKGLVMDGLRMSMRGPEIVDPVYPYCQGVVIGACIEIAEALPFEESVQYLAHARAVIHAVAKEMATPEGVINAATGDGDGGLFKGILMRYLADAAVRLPEDGPANIATKKIAKRLVMASAESVWEHRLEVDGLPVFATDWCDDARLPHNYGVGGSALSDIVRVVRIDERDLSVQLSGWMLLEAAARVSLVDLEHHHHHH”, the “soluble on expression in E. coli” value is “soluble”.

“MSLAYDNVMKDKKIRVGLMTDSIPGGFYNEKGEWGGFDYDIATEIAKRMGVDIERVQVNNKTRIAYVQQGRVDISVSNMTHTRERDKSVDFSITYFFDGQKVLAKKGQFKSVKDMVGKKIATMQGTTSEVNVKRALKEAGDPNPDQSVISFQKESECFQALQMGRVAGWSTDASILVGYSAKEPGKFELVGNFLAEEPYGIAMPQDDSALRDAVNAALQDMWKDGTYKTIYNKWYGPGTPFEMPLAGQIEMWPEGHHHHHH”: the “soluble on expression in E. coli” value is recorded as “soluble”.

“MSLKAPYTIGWANIYSVPTWMKQTEGTITAEVEELKKAGLVRDLMITDAQGNAQTQIQHIQSMIDANVDAIVVIAGSSNALDRVISDACDKGIAVVNFDSLVNTDKVTAKINTDSNEWGATAAKWMVSQLGGKGKIIIMNGPAGISVSDDRRKGAQPVLDANPGLQVITETNTEYNVAPAQEAMTSLLFANPEIDGVLSLGGALSAGSVLAFERQGRDQVPTTGENARQFLELWKEKGLKGWATMQPNWLGALSVYTAVQALEGKDVPAFVKVPLPVIDDSTIGSYLARADKFPADGYIYSDYDKALFDKLLATKEGHHHHHH”: the “soluble on expression in E. coli” value is listed as “soluble”.

In the case of “MTETTHVTSCPLNCWDVCGLKVTVNEGKVVRVDGDEHHPITKGNICGRGRMLKERVNAKERLLYPLKKVNGQFVRISWEEALDDIAGKMRKLKEQFGPTAVLHSHDYANNGLLKNLDRRFFNCYGGATELIGSLCWGAGIEAQTWDFGNAYSHAPEDIDNSRHIVIWGRNVARTNMHLFERLLAAKKRGATIVVIDPLFGPTARIADQYVCIKPGMDAFLAMGIMKELLRLGLEDRAFIKQHTIGFDDVKQLLQTISLAEIERHTGVSRDQMTKLARLYGDRPTATYLGLGMQRYANGGNTIRWIDALVAASGNVGIPGGGANFGNLQVGECFDKAALTLPERKTASRTWTMMKQGEEILRADDPPIGMVIVTCGNPLAQVPNTNLMKKAFASIETVVVFEQFMTDTAAMADYVLPVAASFEEEDVYCSSMYHAYLNYGPKLVDPPGEAKPDLWIWTELAKRLGFGDDFAYTREQFLAMALRPLEHHGITLKRLKTEHRVLLPVEPVPWRDRRFQTPSGKYEFTSTIAKKKGMDGRLQIMYPAESEESNPALAAKYPYRLLTIHPLRSNHSQHYPLIPALQTVRIEVAADVAAAKGLADGDRARVYNDRGSLVGTVKVLDGAYPGTINIDEGQWGVFGGPVNVLTSDLESDNGCGSALYDCLVNIEKVTSEAK”, the “soluble on expression in E. coli” value is on record as “soluble”.

Take “MSSINITNVTVLDNPAPFVNPFQFEISYECLTSLKDDLEWKLIYVGSAEDETYDQVLESVLVGPVNVGNYRFVLQADSPDPLKIREEDIIGVTVLLLTCSYMDQEFIRVGYYVNNDYDDEQLREEPPTKVLIDKVQRNILTDKPRVTKFPINFHPENEQTLGDGPAPTEPFADSVVNGEAPVFLEQPQKLQEIEQFDDSDVNGEAIALLDQPQNLQET”: the “soluble on expression in E. coli” value is “soluble”.

Consider “MGSDKIHHHHHHMPSDASRRLYERLGIPLLPMDSPFGPEYPIGNKFAALALGPAVGHTLFLDSDMICVDAFEADMLCRFDAALKPADMALVAKQNDYWERIYAHAGSALPGDRVVTTCSGEAMPAYYNAGFILVRDARRFAEVWYRLAERVHADPLITNKMPWLDQLTLPVALHALNYKTRALSERFNYPLHIKPLSAASLPPFFCHYHSLDTLVSERSLWAELDELAKRFPELREVLALDANWKKAILAPAPRLAFSEGDSTGTVEAGQDLVITGIPRSGTSHLCRLLSQQPDTVVLNEPPQVFEALKLSPLPWGLPRYYAELRRDILAGRPVPNKHVNGRLVDDTARGNDQSSDYFAEVRGASFHLGTKNTLAYIARLPLIRKVMPTALLIATIRHPYDTLNSWANTFEHLRQAAVERQPFGCPDDLALTGWQRKALLAIADTDHLAVRRALWWRYLALQLEDAGDYVQLLRYEDFVEAPQTTLAALRNNRPLPFDEPAVWSKGLAPDEQELVANIVCDVAERFHYVL”, for which the “soluble on expression in E. coli” value is given as “not soluble”.

Turning to “TAAVALVKANENAAAILNLKNAIQKTNAAVADVVQATQSLGTAVQAVQDHINSVVSPAITAANY”, the “soluble on expression in E. coli” value is recorded as “soluble”.

Consider “MGSDKIHHHHHHMVNDMQERQNRYWQLLHQPDRLLLLHQASSVEQFVTLMGDWLAWPELTLDQMLDFVHMQRWEDFTPKLALFSQAWLPYRYCSQSKEVYWIPAFNQLSKPFLEDDISDIRLGLLAIFIQPKTLLKSLLTQCDSVPEIHPCLMIFHWSRCGSTLVSSSFSKLNDCLVISESMLCSDIMRDDFWSQEVKVKLVDLCLRLQGRFRHGERHLVVKWNAWDLAYWPMLLALYPQSRVLCLIRNPKDILASHQRLAGRHMVEGQGLLSTEWHIQQIETVSTTFSLNKFRISVLQHLAQLTHALLNSNRAILLDYQQVKDFHPTTLSTILGRPLSMDEIECWQDHWCFDAKQQGQVFTPAVSNQPVPLRELQSPSWQQLFMTYNQLLQRLYWDKKHDV”, for which the “soluble on expression in E. coli” value is recorded as “not soluble”.

Take “MGHHHHHHSHMLDDQEAKREAETFKEQGNAYYAKKDYNEAYNYYTKAIDMCPKNASYYGNRAATLMMLGRFREALGDAQQSVRLDDSFVRGHLREGKCHLSLGNAMAACRSFQRALELDHKNAQAQQEFKNANAVMEYEKIAETDFEKRDFRKV”: the “soluble on expression in E. coli” value was “not soluble”.

For “MARIGIRYAEYSAMTVLRYLQAYPPHLQAQVRQMIDSDRLGEYLQRRYPDRHDVQSDKALYGYAQDLRQQYLRSAPNLDKVLFDSRLDLTHRALGLNTAVSRVQGGKLKAKKEIRIASLFKEAAPQFLRMIVVHELAHLRERDHNKAFYQLCQHMEPDYHQLEFDLRVYLTYRELPGNLLEHHHHHH”, the “soluble on expression in E. coli” value was “not soluble”.

As for “KKHTGYVGLKNQGATCYMNSLLQTLFFTNQLRKAVYMMPTEGDDSSKSVPLALQRVFYELQHSDKPVGTKKLTKSFGWETLDSFMQHDVQELCRVLLDNVENKMKGTCVEGTIPKLFRGKMVSYIQCKEVDYRSDRREDYYDIQLSIKGKKNIFESFVDYVAVEQLDGDNKYDAGEHGLQEAEKGVKFLTLPPVLHLQLMRFMYDPQTDQNIKINDRFEFPEQLPLDEFLQKTDPKDPANYILHAVLVHSGDNHGGHYVVYLNPKGDGKWCKFDDDVVSRCTKEEAIEHNYGGHDDDLSVRHCTNAYMLVYIRESKLSEVLQAVTDHDIPQQLVERLQEEKRIEAQKRKERQE”, the “soluble on expression in E. coli” value is on record as “soluble”.

For “MSYQNLVSEAGLTQKLLIHGDKELFQHELKTIFARNWLFLTHDSLIPSPGDYVKAKMGVDEVIVSRQNDGSVRAFLNVCRHRGKTLVHAEAGNAKGFVCGYHGWGYGSNGELQSVPFEKELYGDAIKKKCLGLKEVPRIESFHGFIYGCFDAEAPPLIDYLGDAAWYLEPTFKYSGGLELVGPPGKVVVKANWKSFAENFVGDGYHVGWTHAAALRAGQSVFSSIAGNAKLPPEGAGLQMTSKYGSGMGVFWGYYSGNFSADMIPDLMAFGAAKQEKLAKEIGDVRARIYRSFLNGTIFPNNSFLTGSAAFRVWNPIDENTTEVWTYAFVEKDMPEDLKRRVADAVQRSIGPAGFWESDDNENMETMSQNGKKYQSSNIDQIASLGFGKDVYGDECYPGVVGKSAIGETSYRGFYRAYQAHISSSNWAEFENASRNWHIEHTKTTDR”, the “soluble on expression in E. coli” value was “soluble”.

On to “MAMNYLEAFPKELREYYKNLFGKEEANKIMKKLREPVEHYYIRVNTLKISREKLIGELKKEGLKPLRSPYLPEGLYFVREGPNFSDDFEPKLPVVVANKYAAESVYQGAMLYAPGVLKADKNIKEGDEVQIRDPKGLLVGIGIARMDYKEMTEATRGLAVEVTLPKFKLPSLSELKAFEKGYFYPQGLPSMVTARVLEPKEDDVIIDMAAAPGGKTTHIAQLLENKGEIIAIDKSKNRLRKMEENIKRLGVKNVKLVQMDARKLPDLGIKADKILLDAPCTALGVRPKLWEERTLKHIEATARYQRAFIWAAIKSLRRGGVLVYSTCTLSYEENEGNVKFMIRKGMKLEEQSIFIGSPGIGMNKVQRFYPHKHLTQGFFIAKLRKVKDI”, for which the “soluble on expression in E. coli” value is “soluble”.

Source of the values: the DeepSol protein solubility set.
